Assay results taken from patent US20120178124A1, “STEROL SIDE CHAIN-CLEAVING ENZYME PROTEIN AND USE THEREOF” (MITSUBISHI CHEMICAL CORPORATION, priority 2009, published 2012).

What was measured:
[1] = Analysis of the optimum temperature, conversion of 4-cholesten-3-one by cell-free extract; format: biochemical; details: for Specific activity: Tris-HCl pH 7.5, 4 hours, 4-cholesten-3-one to progesterone
Protocol: (§1) To 20 ml of the cell suspension prepared in (2) above, 680 μl of X10 Bug Buster (Novagen), 20 μl of Benzonase (Novagen), and 2 ml of 40 mg/ml lysozyme were added, and the obtained mixture was then shaken at 30° C. for 30 minutes to disintegrate the cells. Thereafter, the reaction solution was centrifuged to obtain the cell-free extract. The obtained, approximately 20 ml of cell-free extract was dialyzed against 1 L of Buffer R (20 mM KPB pH 7.4, 20% glycerol) two times, and the deposited precipitate was then removed by centrifugation. The cell-free extract obtained as a supernatant herein was used in the subsequent experiments.
Using the cell-free extract prepared in (3) above, conversion of 4-cholesten-3-one was carried out at […]. The reaction solution was prepared, such that 1 ml of the buffer comprised 215 pmol/ml CYP204A1 or 391 pmol/ml CYPSS, 64 μg/ml spinach-derived ferredoxin, 0.1 U/ml spinach-derived ferredoxin reductase protein, 3 U/ml glucose dehydrogenase, 60 mM glucose, 50 μg/ml 4-cholesten-3-one, 2 mM NADH, and 2 mM NADPH. Tris-HCl was added to the reaction solution so as to adjust it to pH 7.5. The reaction was initiated by addition of NADH and NADPH, and it was carried out at 200 rpm for 4 hours, under temperature conditions of 10° C., 15° C., 20° C., 25° C., or 30° C. Thereafter, 1.5 ml of ethyl acetate was added to the reaction solution to terminate the reaction, and extraction was carried out. Then, extraction was carried out again with 0.75 ml of ethyl acetate. The obtained ethyl acetate phase was solidified using evaporator, and the residue was then dissolved in 200 μl of methanol. Thereafter, progesterone was detected by HPLC analysis. The enzyme protein activity for conversion of 4-cholesten-3-one to progesterone under various temperature conditions is shown in Table 1.

[2] = Analysis of the optimum pH, conversion of 4-cholesten-3-one by cell-free extract; format: biochemical; details: for Specific activity: 4-cholesten-3-one to progesterone, 30° C., 14 hours; for optimum pH (pH of highest activity): conversion of 4-cholesten-3-one to progesterone
Protocol: as §1
Using the cell-free extract prepared in (3) above, conversion of 4-cholesten-3-one was carried out at various pH values. The reaction solution was prepared, such that 1 ml of Buffer R comprised […] CYP204A1 or […] CYPSS204A, 64 μg/ml spinach-derived ferredoxin, a 0.1 U/ml spinach-derived ferredoxin reductase protein, 3 U/ml glucose dehydrogenase, 60 mM glucose, 50 μg/ml 4-cholesten-3-one, 2 mM NADH, and 2 mM NADPH. Then, 562 μl of 200 mM Buffer having various pH values was added to 1 ml of the reaction solution, so as to adjust the pH of the reaction solution. The reaction was initiated by the addition of NADH and NADPH, and it was carried out at 200 rpm at 30° C. for 14 hours. Thereafter, 1.5 ml of ethyl acetate was added to the reaction solution to terminate the reaction, and extraction was carried out. Then, extraction was carried out again with 0.75 ml of ethyl acetate. The obtained ethyl acetate phase was solidified using evaporator, and the residue was then dissolved in 200.d of methanol. Thereafter, progesterone was detected by HPLC analysis. The enzyme protein activity for conversion of 4-cholesten-3-one to progesterone under various pH conditions is shown in Table 1. The enzyme protein activity was indicated by the amount (g) of progesterone generated per hour per mol of P450.

[3] = Thermostability test of cell-free extract; format: biochemical; details: for Relative activity: 140 hr versus 0 hr; for Activity 0 hr: enzyme protein solution before conservation, reaction 15° C., 4 hours
Protocol: as §1
The cell-free extract prepared in (3) above was conserved at various temperature for 140 hours. The conservation temperature was set at 6° C., 10° C., 20° C., 30° C., 37° C., or 45° C. Using the enzyme protein solution before conservation and the sample obtained after conservation for 140 hours, conversion of 4-cholesten-3-one was carried out, and stability was examined. The reaction solution was prepared, such that 1 ml of the buffer comprised an enzyme protein solution of CYP204A1 or CYPSS that had been conserved at each temperature, 64 μg/ml spinach-derived ferredoxin, 0.1 U/ml spinach-derived ferredoxin reductase protein, 3 U/ml glucose dehydrogenase, 60 mM glucose, 50 μg/ml 4-cholesten-3-one, 2 mM NADH, and 2 mM NADPH. The reaction was initiated by addition of NADH and NADPH, and it was carried out at 200 rpm at 15° C. for 4 hours. Thereafter, 1.5 ml of ethyl acetate was added to the reaction solution to terminate the reaction, and extraction was carried out. Then, extraction was carried out again with 0.75 ml of ethyl acetate. The obtained ethyl acetate phase was solidified using an evaporator, and the residue was then dissolved in 200 μl of methanol. Thereafter, progesterone was detected by HPLC analysis. […] In particular, when the cell-free extract was conversed at 20° C. for 140 hours, CYP204A1 maintained 47% of its activity and CYPSS maintained 39% of its activity.

[4] = substrate: CC(C)CCC[C@@H](C)[C@H]1CC[C@H]2[C@@H]3CCC4=CC(=O)CC[C@]4(C)[C@H]3CC[C@]12C; assay: purified protein, by the assay type; details: other: 4-cholesten-3-one 0.1 to 500 μM, pH 7.5, 15° C., 60 minutes, Lineweaver-Burk plot
[5] = conserved at 6° C. for 140 hours
[6] = conserved at 10° C. for 140 hours
[7] = conserved at 20° C. for 140 hours
[8] = conserved at 30° C. for 140 hours
[9] = conserved at 37° C. for 140 hours
[10] = conserved at 45° C. for 140 hours

Molecule	Specific activity ([1]; 10° C.) [g/h/mol]	Specific activity ([1]; 15° C.) [g/h/mol]	Specific activity ([1]; 20° C.) [g/h/mol]	Specific activity ([1]; 25° C.) [g/h/mol]	Specific activity ([1]; 30° C.) [g/h/mol]	Specific activity ([2]; KPB pH 6.2) [g/h/mol]	Specific activity ([2]; KPB pH 6.7) [g/h/mol]	Specific activity ([2]; KPB pH 7.1) [g/h/mol]	Specific activity ([2]; KPB pH 7.4) [g/h/mol]	Specific activity ([2]; KPB pH 7.9) [g/h/mol]	Specific activity ([2]; TES pH 6.6) [g/h/mol]	Specific activity ([2]; TES pH 6.8) [g/h/mol]	Specific activity ([2]; TES pH 7.3) [g/h/mol]	Specific activity ([2]; TES pH 7.5) [g/h/mol]	Specific activity ([2]; TES pH 8.0) [g/h/mol]	Specific activity ([2]; Tris-HCl pH 7.5) [g/h/mol]	Specific activity ([2]; Tris-HCl pH 8.2) [g/h/mol]	Specific activity ([2]; Tris-HCl pH 8.7) [g/h/mol]	optimum pH (pH of highest activity) [2]	Activity 140 hr [3, 5] [µg/mL]	further results
CYP204A1: P450scc from Novosphingobium aromaticivorans ATCC 700278, amino acid sequence SEQ ID NO: 23 (protein, Novosphingobium aromaticivorans) MARAATAAGNGLPLLDGGVPLLGHLAQFFRDPVSVLKRGYRSKGRLFAMNFMGQRMNVMLGPEHNRFFFEETDKLLSIRESMPFFLKMFSPEFYSFAEMDEYLRQRSIIMPRFKAASMKQYVPVMVEESLNLVERLGEEGEFDLIPTLGPVVMDIAAHSFMGREFHEKLGHEFFELFRDFSGGMEFVLPLWLPTPKMVKSQRAKRKLHAILQSWIDKRRAAPLDPPDFFQTMIETKYPDGRPVPDEIIRHLILLLVWAGHETTAGQVSWALADLLQNPDYQKVLRGEISSLLGGSDGRDLGWEQAVAMEKMDLALRETERLHPVAYMLSRKARADIERDGYVIRKGEFVLLAPSVSHRMEETFRNPDAYDPERFNPANPDAQIESNSLIGFGGGVHRCAGVNFARMEMKVLVAILLQNFDMELMDEVRPIAGASTYWPAQPCRVRYRRRKLDGSEAGADMAALARAAGCPAHT	507	698	719	550	285	0	0	0	0	0	0	0	39	97	82	207	114	0	7.5	4.5	Relative activity ([3]; conserved at 6° C.): 85%; Activity 140 hr [3, 6]: 3.9 µg/mL; Relative activity ([3]; conserved at 10° C.): 74%; Activity 140 hr [3, 7]: 2.5 µg/mL; Activity 140 hr [3, 8]: 0.5 µg/mL; Relative activity ([3]; conserved at 30° C.): 9%; Activity 140 hr [3, 9]: 0 µg/mL; Relative activity ([3]; conserved at 37° C.): 0%; Activity 140 hr [3, 10]: 0 µg/mL; Relative activity ([3]; conserved at 45° C.): 0%; Activity 0 hr [3]: 5.3 µg/mL
Sphingomonas subterranea NBRC16086 P450scc CYPSS204A (CYPSS), wild type, SEQ ID NO: 2 (Novosphingobium subterraneum) (protein) MASAAAGADGLPLLDGGVPLLGHLAQFFRDPVSVLKRGYRSKGRLFAMNFMGQRMNVMLGPEHNRFFFEETDKLLSIRESMPFFLKMFSPEFYSFAEMDEYLRQRAIIMPRFKAASMKQYVPVMVEESLNLVERLGEEGEFDLIPTLGPVVMDIAAHSFMGREFHEKLGHEFFELFRDFSGGMEFVLPLWLPTPKMVKSQRAKKKLHAILQSWIDKRRASPLDPPDFFQTMIETKYPDGRAVPDEIIRHLILLLVWAGHETTAGQVSWALADLLQNPGYQQVLREEVASLLGGSDGRALGWEQAVAMEKMDLALRETERLHPVAYMLSRKASADIERDGYRIRKGEFVLLAPSVSHRMEETFRNADAYDPERFNPQNPDAQIESNSLIGFGGGVHRCAGVNFARMEMKVLVAILLQNFDMELIDEVRPIAGASTYWPAQPCRVRYKRRKLDGAGGSADVAALAKAAGCPAHA	918	1279	1133	936	465	0	19	21	0	0	0	16	76	165	168	301	269	40	7.5	11.6	optimum temperature for action (temperature of highest activity) ([1]; conversion of 4-cholesten-3-one to progesterone, pH 7.5): 15 °C; Km [4]: 1.1 µM; Relative activity ([3]; conserved at 6° C.): 81%; Activity 140 hr [3, 6]: 10.5 µg/mL; Relative activity ([3]; conserved at 10° C.): 73%; Activity 140 hr [3, 7]: 5.6 µg/mL; Activity 140 hr [3, 8]: 1 µg/mL; Relative activity ([3]; conserved at 30° C.): 7%; Activity 140 hr [3, 9]: 0 µg/mL; Relative activity ([3]; conserved at 37° C.): 0%; Activity 140 hr [3, 10]: 0 µg/mL; Relative activity ([3]; conserved at 45° C.): 0%; Activity 0 hr [3]: 14.4 µg/mL
